In patent publication CN113307874A (GUANGZHOU EXCELMAB BIOMEDICAL TECH CO LTD, dated 2021) one finds binding result and EC50 data, which are given here for 20 molecules.

Numbering of substitutions follows the chain as printed.

Assay [1] addresses T1, 人LAG3抗原 (ACRO, Cat.LA3-H5222) (human, UniProt P18627 23-450).
T1 construct: Bought protein; also called human LAG3 antigen
T1 sequence (looked up): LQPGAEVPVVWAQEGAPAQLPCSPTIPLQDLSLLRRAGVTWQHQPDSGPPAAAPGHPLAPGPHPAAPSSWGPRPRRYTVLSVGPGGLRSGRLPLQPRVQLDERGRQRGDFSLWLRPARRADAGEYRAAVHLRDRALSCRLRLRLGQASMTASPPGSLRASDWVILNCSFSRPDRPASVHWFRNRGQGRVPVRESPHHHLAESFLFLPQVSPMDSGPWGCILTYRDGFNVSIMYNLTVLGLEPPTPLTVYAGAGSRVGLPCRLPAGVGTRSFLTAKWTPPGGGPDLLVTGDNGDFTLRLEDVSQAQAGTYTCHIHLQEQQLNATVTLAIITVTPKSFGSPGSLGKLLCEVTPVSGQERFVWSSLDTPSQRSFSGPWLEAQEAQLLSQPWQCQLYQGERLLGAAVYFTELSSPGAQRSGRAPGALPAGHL
As to the kind of experiment: indirect ELISA, coated human LAG3. In general terms: ELISA stands for enzyme-linked immunosorbent assay.

For assay [2], the target named is T2, 过表达人LAG3抗原的Jurkat/LAG3细胞表面的人LAG3 (human, UniProt P18627 23-525).
T2 construct: whole, on cells; also called 过表达人LAG3的Jurkat细胞
T2 sequence (looked up): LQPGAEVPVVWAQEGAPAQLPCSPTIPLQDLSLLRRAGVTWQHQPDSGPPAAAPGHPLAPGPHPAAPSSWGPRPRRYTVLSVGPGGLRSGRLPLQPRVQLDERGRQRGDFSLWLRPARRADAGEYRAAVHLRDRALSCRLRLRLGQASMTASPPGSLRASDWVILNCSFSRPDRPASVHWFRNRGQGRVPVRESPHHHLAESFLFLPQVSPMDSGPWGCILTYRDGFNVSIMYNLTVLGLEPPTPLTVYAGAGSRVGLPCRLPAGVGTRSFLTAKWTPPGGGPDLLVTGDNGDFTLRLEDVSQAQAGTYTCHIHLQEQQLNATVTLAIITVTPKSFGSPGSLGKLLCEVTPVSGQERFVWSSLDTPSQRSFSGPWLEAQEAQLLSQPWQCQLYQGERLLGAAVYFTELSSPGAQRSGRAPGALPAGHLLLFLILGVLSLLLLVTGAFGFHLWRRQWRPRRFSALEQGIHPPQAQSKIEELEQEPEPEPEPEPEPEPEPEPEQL
As to the kind of experiment: indirect flow cytometry on Jurkat/LAG3 cells. On the technique in general: In flow cytometry, cells or beads pass a laser one at a time.

The target of assay [3] is T1, 人LAG3抗原 (ACRO, Cat.LA3-H5222). As to the kind of experiment: indirect ELISA, coated human LAG3. This is another data set of the same source.

B1: 鼠源抗LAG3抗体 mL42 (antibody, V domains shown)
VH: EVQLQQSGAELVRPGASVKLSCKALGYTFTDYEVHWLKQTPVRGLEWIGAIHPGSGGAAYNQKVKGKATLTADKSSSTAYMELSVLTSEDSAVYYCTSYGWNDWGQGTTLTVSS
VL: DILMNQSHKFMSTSVGDRVSIACKASQDVSTAVAWYQQKPGQSPKLLISWASTRHTGVPDRFAGSGSGTDFTLTINNVQSEDLADYFCQQYSSYPYTFGGGTKLELER
notes: detected with anti-human IgG secondary antibodies
For the molecule B1, the binding result in assay [1] and in assay [2] was “binds” throughout.

B2: 人源化抗体 hmL42 (antibody, V domains shown)
VH: QVQLVQSGAEVKKPGASVKVSCKASGYTFTDYEVHWVKQAPGQGLEWMGAIHPGSGGAAYNQKVKGKVTMTADTSISTAYMELSRLRSDDTAVYYCTSYGWNDWGQGTTVTVS
VL: DIQLTQSPSFLSASVGDRVTITCKASQDVSTAVAWYQQKPGKSPKLLISWASTRHTGVPDRFAGSGSGTDFTLTISSLQPEDFATYYCQQYSSYPYTFGQGTKLEIK
On to B2, for which the binding result in assay [1] and in assay [2] was “binds” throughout.

B3: hmL42人源化亲和力成熟变体 R2D12 (antibody, V domains shown)
VH: B2 VH
VL: B2 VL with S92M, Y94F, P95A, Y96F
Broadly, the EC50 is the concentration giving half of the maximal effect. Read a high EC50 as a need for much substance. B3 came in with an EC50 in assay [3] of 0.119 µg/mL.

B4: hmL42人源化亲和力成熟变体 R3H5 (antibody, V domains shown)
VH: B2 VH
VL: B2 VL with S92W, S93V, Y94F, P95S, Y96F
Turning to B4, a half-maximal effect in assay [3] (EC50) was put at 0.147 µg/mL.

B5: hmL42人源化亲和力成熟变体 R2G10 (antibody, V domains shown)
VH: B2 VH
VL: B2 VL with S92W, S93E, Y94F, P95S, Y96F
On to B5, for which the EC50 in assay [3] turned out to be 0.16 µg/mL.

B6: hmL42人源化亲和力成熟变体 R2B11 (antibody, V domains shown)
VH: B2 VH
VL: B2 VL with S92V, S93V, Y94F, P95S, T97S
Regarding B6, the EC50 in assay [3] stood at 0.244 µg/mL.

B7: hmL42人源化亲和力成熟变体 R2A8 (antibody, V domains shown)
VH: B2 VH
VL: B2 VL with Q89M, Q90G, S92W, S93V, Y94F
Molecule B7 registered an EC50 in assay [3] of 0.132 µg/mL.

B8: hmL42人源化亲和力成熟变体 R3H9 (antibody, V domains shown)
VH: B2 VH
VL: B2 VL with S92V, S93D, Y94F
Molecule B8 gave a concentration giving a half-maximal response (EC50) in assay [3] of 0.183 µg/mL.

B9: hmL42人源化亲和力成熟变体 R2H11 (antibody, V domains shown)
VH: B2 VH
VL: B2 VL with S92Y, Y94W, P95S
B9 registered an EC50 in assay [3] of 0.382 µg/mL.

B10: hmL42人源化亲和力成熟变体 R3D4 (antibody, V domains shown)
VH: B2 VH
VL: B2 VL with S92N, S93V, Y94F, P95A, Y96F
On to B10, for which the EC50 in assay [3] stood at 0.112 µg/mL.

B11: hmL42人源化亲和力成熟变体 R3B5 (antibody, V domains shown)
VH: B2 VH
VL: B2 VL with S92V, S93R, Y94F, P95S
As to B11, the EC50 in assay [3] worked out at 0.184 µg/mL.

B12: hmL42人源化亲和力成熟变体 R3B6 (antibody, V domains shown)
VH: B2 VH
VL: B2 VL with S92L, Y94F, Y96F, T97M
For the molecule B12, it took 0.216 µg/mL to reach a half-maximal effect in assay [3] (EC50).

B13: hmL42人源化亲和力成熟变体 R2 (antibody, V domains shown)
VH: B2 VH
VL: B2 VL with Q89M, Q90G, S92L, S93F, Y94F
On to B13, for which, in assay [3], the EC50 turned out to be 0.202 µg/mL.

B14: hmL42人源化亲和力成熟变体 R3C5 (antibody, V domains shown)
VH: B2 VH
VL: B2 VL with S92W, S93V, Y94W, P95D, T97V
B14: it took 0.437 µg/mL to reach a half-maximal effect in assay [3] (EC50).

B15: hmL42人源化亲和力成熟变体 R3C4 (antibody, V domains shown)
VH: B2 VH
VL: B2 VL with S92V, S93A, Y94F, P95S, Y96F
With B15, in assay [3], the EC50 is 0.248 µg/mL.

B16: hmL42人源化亲和力成熟变体 R3G5 (antibody, V domains shown)
VH: B2 VH
VL: B2 VL with S92V, S93M, Y94F, Y96F
Molecule B16 displayed an EC50 in assay [3] of 0.138 µg/mL.

B17: hmL42人源化亲和力成熟变体 R2C9 (antibody, V domains shown)
VH: B2 VH
VL: B2 VL with Q89M, Q90S, S92V, S93V, Y94F
Regarding B17, a half-maximal effect in assay [3] (EC50) was put at 0.221 µg/mL.

B18: hmL42人源化亲和力成熟变体 R2E8 (antibody, V domains shown)
VH: B2 VH
VL: B2 VL with Q89H, S92I, S93M, Y94F
In assay [3], B18 displayed an EC50 of 0.204 µg/mL.

B19: hmL42人源化亲和力成熟变体 R3G4 (antibody, V domains shown)
VH: B2 VH
VL: B2 VL with S92I, S93D, Y94F, Y96F, T97V
The molecule B19 came in with an EC50 in assay [3] of 0.175 µg/mL.

B20: hmL42人源化亲和力成熟变体 R3G6 (antibody, V domains shown)
VH: B2 VH
VL: B2 VL with S92V, S93D, Y94F, Y96F, T97K
Regarding B20, the EC50 in assay [3] was 0.206 µg/mL.
